According to the supplement of paper PMC10567573:
± gives the standard deviation.

Test: protein stability index of a GFP-peptide fusion (GPS, HEK-293T) (PSI 1-6); higher = more stable
[1] = treatment: MLN4924 1 uM, 8 h, c terminus: a fixed tail appended
[2] = treatment: DMSO, c terminus: a fixed tail appended
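Further: 24-mer peptide tiles fused after GFP, lentivirally expressed, FACS-sorted into six equal bins by GFP/DsRed ratio, decoded by Illumina sequencing, PSI is the read-weighted mean bin number.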

## AFSPIVILTERVSLPFKPFAIILP [MIA2]
[1]
  protein stability index: 2.87 ± 0.24

## IAFDGVVGSGGRRDSTARRPRPQG [RTN2]
[2]
  protein stability index: 4.29 ± 0.17
[1]
  protein stability index: 4.26 ± 0.22

## IRLVCSRGNRLKTTSWGLLSLGAL [SCNN1D]
[2]
  protein stability index: 3.2 ± 0.45
[1]
  protein stability index: 3.07 ± 0.54

## AQSGERECHIVVLTDDDVVDWDEE [BTBD10]
[2]
  protein stability index: 5.205 ± 0.041
[1]
  protein stability index: 5.14 ± 0.28

## GSRLAEFGAAGVNRLSIGLQSLDD [RSAD1]
[2]
  protein stability index: 4.22 ± 0.48
[1]
  protein stability index: 4.09 ± 0.34

## KVFLHERELWLKFHEVGTEMIITK [TBX5]
[2]
  protein stability index: 2.12 ± 0.19
[1]
  protein stability index: 2.33 ± 0.44

## HRRDGKWQIVHFHRSGAPSVLPH [CAMK2A]
treatment: DMSO, c terminus: native
  protein stability index: 3.2 ± 0.21
treatment: MLN4924 1 uM, 8 h, c terminus: native
  protein stability index: 3.34 ± 0.24

## YGTQRTLILESQNWRYATGGWETV [FUT8]
[2]
  protein stability index: 2.1 ± 0.13
[1]
  protein stability index: 2.16 ± 0.14

## FVSKIRAVINDIANLPVPTIAAID [AUH]
[2]
  protein stability index: 2.42 ± 1.6
[1]
  protein stability index: 2.04 ± 0.54

## EENIMKSNIDKKFSAHYDAVEAEL [FAM50A]
[2]
  protein stability index: 4.98 ± 0.19
[1]
  protein stability index: 5.08 ± 0.083

## TGLELIAEESNPPLQDFPNSISSD [MIA2]
[2]
  protein stability index: 5.2 ± 0.097
[1]
  protein stability index: 5.33 ± 0.25

## RLATVHMSRMINKYKRRRFQKTKN [CLPTM1]
[2]
  protein stability index: 3.16 ± 0.36
[1]
  protein stability index: 3.54 ± 0.49

## GAGLLSSISELKHALSGHAKVKPF [TPH1]
[2]
  protein stability index: 2.86 ± 0.095
[1]
  protein stability index: 3.02 ± 0.12

## ETHRAPDLVQWTRHMEAVKAQLLE [SOAT2]
[2]
  protein stability index: 4.81 ± 0.21
[1]
  protein stability index: 4.53 ± 0.29

## DEMQEVPNRVLAPEQSLKKTKTSE [SPANXN3]
[2]
  protein stability index: 5.57 ± 0.2
[1]
  protein stability index: 5.59 ± 0.24

## LMGDESACIAYIRITQYLDAGGIP [CAMK2A]
[2]
  protein stability index: 3.21 ± 0.89
[1]
  protein stability index: 2.77 ± 0.68

## MVGEEKMSLRNRLSKSRENPEEDE [SOAT1]
[2]
  protein stability index: 5.52 ± 0.16
[1]
  protein stability index: 5.44 ± 0.21

## LFPVFLATDYLRYKPVVLLQGLSL [SLC19A2]
[2]
  protein stability index: 2.88 ± 0.41
[1]
  protein stability index: 2.84 ± 0.72

## KERDLRDVGDWRKNIEEKSGMEGR [TNNI2]
[2]
  protein stability index: 5.07 ± 0.25
[1]
  protein stability index: 5.15 ± 0.3

## RKRLAREMQLSEVQIKTWFQNRRM [VENTX]
[2]
  protein stability index: 2.67 ± 0.24
[1]
  protein stability index: 2.73 ± 0.41

## YHPEEFVCSQCGKVLEEGGFFEEK [PDLIM7]
[2]
  protein stability index: 3.94 ± 0.5
[1]
  protein stability index: 3.93 ± 0.57

## NNWYYISPRLTFQCLEDLVNHYSE [SLA]
[2]
  protein stability index: 2.44 ± 0.35
[1]
  protein stability index: 2.23 ± 0.38

## LQRVLQNCPWPMSCPGSSYRTVVR [EMID1]
[2]
  protein stability index: 2.49 ± 0.27
[1]
  protein stability index: 2.74 ± 0.74

## KAGFTASPFTNLLNGSSQPTTRNY [CDC14A]
[2]
  protein stability index: 3.38 ± 0.19
[1]
  protein stability index: 3.39 ± 0.18

## RLCRLAGASSPAAYDEALAELHAH [ZSWIM9]
[2]
  protein stability index: 3.29 ± 0.36
[1]
  protein stability index: 3.33 ± 0.2

## PAFRFLTKMWHPNIYETGDVCISI [CDC34]
[2]
  protein stability index: 3.2 ± 0.42
[1]
  protein stability index: 3.04 ± 0.59

## YVLNLLYETKKHLVQLPNINRVST [PPEF2]
[2]
  protein stability index: 2.49 ± 0.68
[1]
  protein stability index: 2.59 ± 0.39

## DESLCPQHHEALSLFCYEDQEAVC [TRIM39]
[2]
  protein stability index: 4.7 ± 0.057
[1]
  protein stability index: 4.69 ± 0.16

## AKMAGIGIREASSGGGGSSSNFHI [KRT15]
[2]
  protein stability index: 3.16 ± 0.4
[1]
  protein stability index: 3.14 ± 0.27

## ISGALLQIKTLLALSCHEQEMVVS [SLC2A12]
[2]
  protein stability index: 2.91 ± 0.5
[1]
  protein stability index: 2.42 ± 0.48

## LQTSLENGTRVQEEPELVFTLGDC [FKBP8]
[2]
  protein stability index: 4.34 ± 0.2
[1]
  protein stability index: 4.77 ± 0.25

## DHPLPEVAHVKHLSASQKALKEKE [COX4I1]
[2]
  protein stability index: 5.43 ± 0.18
[1]
  protein stability index: 5.47 ± 0.17

## YLKNLPLLSKYCGYREDNIPQLED [TPH1]
[2]
  protein stability index: 2.57 ± 0.09
[1]
  protein stability index: 2.77 ± 0.2

## RDKARLLREKVEFLRSLRQMKQKV [NFE2L1]
[2]
  protein stability index: 2.73 ± 0.15
[1]
  protein stability index: 3.14 ± 0.37

## RLQQLRRLRGLLRVLRGRPGAGSR [FBXO33]
[2]
  protein stability index: 2.36 ± 0.21
[1]
  protein stability index: 2.66 ± 0.62

## RQERVSLYPFQIHSIALSTFASLI [CDS1]
[2]
  protein stability index: 3.04 ± 0.61
[1]
  protein stability index: 2.92 ± 0.49

## SNSCPAELPNIKREISETEAKALL [TFE3]
[2]
  protein stability index: 5.1 ± 0.098
[1]
  protein stability index: 5.18 ± 0.12

## PAHRFVLAAGSAVFDAMFNGGMAT [BTBD1]
[2]
  protein stability index: 2.49 ± 0.85
[1]
  protein stability index: 2.24 ± 0.55

## DFLCLLGVSYTFDNEDSELNGDYG [MIA2]
[2]
  protein stability index: 2.24 ± 0.39
[1]
  protein stability index: 2.34 ± 0.44

## IGLTKAGMEGDWSWVDDTPFNKVQ [CD207]
[2]
  protein stability index: 2.97 ± 0.37
[1]
  protein stability index: 3.04 ± 0.46

## VKQEEDIKPPPPLVLNSQQSDTLE [RAD54B]
[2]
  protein stability index: 5.42 ± 0.22
[1]
  protein stability index: 5.39 ± 0.33

## REPQEDSQKDLENDPSVNSQAQET [TOR1AIP2]
[2]
  protein stability index: 5.68 ± 0.15
[1]
  protein stability index: 5.61 ± 0.2

## AVEAGQEECAKWLLLNNANPNLSN [RIPK4]
[2]
  protein stability index: 3.82 ± 0.25
[1]
  protein stability index: 4.26 ± 0.47

## KTHSQELMKESLQTGDLLSTFHTI [PLAGL1]
[2]
  protein stability index: 3.49 ± 0.27
[1]
  protein stability index: 3.64 ± 0.23

## QSSLLETLYRNRSNLETIFRIIDS [PPEF2]
[2]
  protein stability index: 2.17 ± 0.25
[1]
  protein stability index: 2.15 ± 0.1
